The source of these data is US20070128627A1 (US Dept. of Health and Human Services, published 2007).

The target in one assay is T1, VP16/GR (UniProt P06536 1-795).
T1 construct: Assayed with and without 1 µM Dex
T1 sequence: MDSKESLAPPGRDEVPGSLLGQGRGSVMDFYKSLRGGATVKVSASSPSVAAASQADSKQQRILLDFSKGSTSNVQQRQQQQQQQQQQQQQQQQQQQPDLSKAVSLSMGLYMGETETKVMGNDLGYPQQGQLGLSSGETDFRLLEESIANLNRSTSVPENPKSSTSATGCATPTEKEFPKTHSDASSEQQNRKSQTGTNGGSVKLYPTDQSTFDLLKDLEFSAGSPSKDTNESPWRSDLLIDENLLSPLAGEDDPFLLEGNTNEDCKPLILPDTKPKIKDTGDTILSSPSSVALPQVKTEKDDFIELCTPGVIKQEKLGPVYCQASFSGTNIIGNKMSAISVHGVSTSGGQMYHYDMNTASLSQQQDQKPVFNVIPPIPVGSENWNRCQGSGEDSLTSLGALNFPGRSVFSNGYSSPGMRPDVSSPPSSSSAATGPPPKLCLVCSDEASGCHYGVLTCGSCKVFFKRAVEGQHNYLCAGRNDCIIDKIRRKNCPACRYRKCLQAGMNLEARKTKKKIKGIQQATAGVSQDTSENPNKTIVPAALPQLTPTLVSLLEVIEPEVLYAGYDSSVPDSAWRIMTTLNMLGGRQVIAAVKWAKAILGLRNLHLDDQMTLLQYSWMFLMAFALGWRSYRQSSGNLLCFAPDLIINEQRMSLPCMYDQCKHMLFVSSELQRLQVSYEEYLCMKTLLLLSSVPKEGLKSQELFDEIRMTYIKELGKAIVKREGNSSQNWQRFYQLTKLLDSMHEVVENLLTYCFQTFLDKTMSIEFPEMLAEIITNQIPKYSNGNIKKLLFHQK
Briefly: mammalian two-hybrid ±1 µM Dex (FIG. 6B).

Another assay has as its target T2, VP16/TIF2.4 (human, UniProt Q15596 624-1010).
T2 construct: Only the TIF2.4 fragment is present; The text gives no limits for it, so the whole TIF2 entry is named
T2 sequence: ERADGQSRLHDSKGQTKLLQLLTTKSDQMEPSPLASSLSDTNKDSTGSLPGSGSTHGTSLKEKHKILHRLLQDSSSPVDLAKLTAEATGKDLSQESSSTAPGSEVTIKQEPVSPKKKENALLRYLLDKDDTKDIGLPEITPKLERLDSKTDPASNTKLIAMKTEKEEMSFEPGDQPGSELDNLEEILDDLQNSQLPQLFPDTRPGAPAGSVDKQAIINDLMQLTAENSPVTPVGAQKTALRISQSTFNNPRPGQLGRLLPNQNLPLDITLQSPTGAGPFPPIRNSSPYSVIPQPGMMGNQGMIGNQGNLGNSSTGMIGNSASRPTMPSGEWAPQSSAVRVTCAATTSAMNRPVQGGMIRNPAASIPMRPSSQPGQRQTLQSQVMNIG
Briefly: mammalian two-hybrid in CV-1 cells, relative luciferase activity (FIG. 6A).

From the text for VP16/TIF2.4: Triplicate samples of CV-1 cells were transiently transfected with VP16 or VP16/TIF2.4 in FIG. 6A experiments. […] After determining the relative luciferase activities as described in FIG. 2B and 2C, the average values±S.E.M. from 2-5 experiments were plotted.

B1: GAL/STAMP(623-834) (other)
chain: MKLLSSIEQACDICRLKKLKCSKEKPKCAKCLKNNWECRYSPKTKRSPLTRAHLTEVESRLERLEQLFLLIFPREDLDMILKMDSLQDIKALLTGLFVQDNVNKDAVTDRLASVETDMPLTLRQHRISATSSSEESSNKGQRQLTVSENTPKENSMKVREWNNKGGHCCKLETQELEPKFNLMQILQDNGNLSKMQARIAFSAYLQHVQIRLMKDSGGQTFSASWAAKEDEQMELVVRFLKRASNNLQHSLRMVLPSRRLALLERRRILAHQLGDFIIVYNKETEQMAEKKSKKKVEEEEEDGVNMENFQEFIRQASEAELEEVLTFYTQKNKSASVFLGTHSKISKNNNNYSDSGAKG
notes: domain: GAL-DBD; Expressed in CV-1 cells for the mammalian two-hybrid assay; also called Gal/6-6CL1
Take B1: the binding result in the assay with VP16/GR is given as “no binding”. Besides, the “average fold increase above the VP16 control” value with VP16/TIF2.4 was 11 fold.
